In patent US20230125690A1 (KYUNGPOOK NATIONAL UNIVERSITY INDUSTRY ACADEMIC COOPERATION …, published 2023):
*1 amine or outer side, *2 acyl side, *3 side chain or, on linkers, in order; H or OH if unused. Where no end group is shown, it is not given here. [ ]: non-standard residue; d: D form. Sac = acetylated serine, O-acetyl-L-serine, CC(=O)OC[C@H](N[*:1])C(=O)[*:2]

T1: human COX2 (cyclooxygenase 2) protein with acetylated S565 residue (human, UniProt P35354 18-604, acetylated serine at S565)
T1 construct: Endogenous protein in RIPA lysates of human microglia and human PBMCs, and in human brain tissue sections; also called S565 acetylated COX2 protein; acetylated COX2 protein
T1 sequence: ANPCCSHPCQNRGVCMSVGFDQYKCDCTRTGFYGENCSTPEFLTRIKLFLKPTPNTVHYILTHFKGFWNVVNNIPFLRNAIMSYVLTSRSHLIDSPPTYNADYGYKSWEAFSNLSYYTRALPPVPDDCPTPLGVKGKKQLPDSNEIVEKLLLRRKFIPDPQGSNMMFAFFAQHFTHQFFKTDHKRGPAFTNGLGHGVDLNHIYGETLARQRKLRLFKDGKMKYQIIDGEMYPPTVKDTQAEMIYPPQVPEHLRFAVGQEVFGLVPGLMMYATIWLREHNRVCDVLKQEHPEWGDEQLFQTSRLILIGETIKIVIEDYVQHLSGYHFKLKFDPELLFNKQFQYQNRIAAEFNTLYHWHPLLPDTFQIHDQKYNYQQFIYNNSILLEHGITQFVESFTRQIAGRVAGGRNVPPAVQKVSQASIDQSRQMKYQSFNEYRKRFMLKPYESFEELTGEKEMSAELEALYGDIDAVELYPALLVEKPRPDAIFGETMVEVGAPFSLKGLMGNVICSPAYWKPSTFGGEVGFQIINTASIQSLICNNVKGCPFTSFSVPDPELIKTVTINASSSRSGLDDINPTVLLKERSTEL

T2: acetylated peptide PFTSacFSVPDPELI (SEQ ID NO: 3) including acetylated S565 residue of COX2 (human)
T2 peptide: PFT[Sac]FSVPDPELI

T3: acetylated peptide GCPFTSacFSVPD (SEQ ID NO: 4) including acetylated S565 residue of COX2 (human)
T3 peptide: GCPFT[Sac]FSVPD


Experiments:
[1] = molecular target: T1, human COX2 (cyclooxygenase 2) protein …; test: sandwich ELISA on human microglia lysates, plate coated with 9F7-2
[2] = molecular target: T2, acetylated peptide PFTSacFSVPDPELI (SEQ …); test: ELISA, 96-well plate coated with 9F7-2, peptide captured, biotinylated COX2 antibody detection
[3] = molecular target: T1, human COX2 (cyclooxygenase 2) protein …; test: sandwich ELISA on human PBMC lysates, plate coated with 44C7C8
Description: The sample preparation was performed according to the following procedure. After collecting mouse and human blood, the blood was transferred to a heparin tube and reacted for 30 minutes. The reacted blood was placed on the same amount of Histopaque (sigma, 10771) and centrifuged (400 g, 30 minutes). After centrifugation, a middle PBMC layer was separated and washed. After washing, the PBMCs were lysed by adding an RIPA solution (Cell signaling, 9806S), and then the cell lysate was centrifuged (13,000×g, 10 minutes) to obtain a supernatant, and then the amount of protein was quantified and ELISA assay was performed using 100 μg/ml of protein.
After the plate was washed with PBS/Tween, 300 μl/well of a blocking solution was applied at RT for 1 hour. 50 μl of a PBMC sample (100 μg/ml) was treated and incubated at RT for 2 hours. […] After the final washing, the detection was performed with TMB (3-3′,5,5′-tetramethylbenzidine) ([…] substrate for HRP) and the plate was read at 405 nm using an ELISA plate reader. A standard curve was obtained by step-diluting the peptide (500 μg/ml) of SEQ ID NO: 3 or SEQ ID NO: 4, and the amount of COX2 protein acetylated in S565 residue was calculated by substituting an optical density (O.D.) value obtained from the sample to the Standard curve.

[4] = molecular target: T3, acetylated peptide GCPFTSacFSVPD (SEQ …); test: ELISA, plate coated with antibody, peptide captured, biotinylated COX2 antibody detection

Row | Binder | binding result [1] | binding result [2] | binding result [3] | binding result [4]
1 | monoclonal antibody 9F7-2 (antibody, V domains shown, Clones were screened for IgG expression; the isotype and constant regions are not) VH: QVQLQQSGAELVRPGTSVKISCKASGYTFTDYLLGWVKQRPGHGLEWIGDIYPGGTYIKYNEKFKGKATLTADTSSSTAYMQLSSLTSEDSAVYFCARGRNDEKGDYWGQGTSVTVSS VL: DVLMTQTPLSLPVSLGDQASISCRSSQSIVHRNGFTYLEWYLQKPGQSPKLLIYQVSNRFSGVPDRFSGSGSGTDFTLKISRVEAEDLGVYYCFQGSHVPPTFGGGTKLEIK | binds | binds |  | 
2 | monoclonal antibody 44C7C8 (antibody, V domains shown, the isotype and constant regions are not; The methods call it 44C7F5 or 44C75F and the results call it 44C7C8; also called 44C7F5; 44C75F) VH: DVQLQESGPGLVKPSQSLSLTCSVTGYSITSGYYWNWIRQFPGNKLEWMGYISYDGSNNYNPSLKNRISITRDTYKKQFFLKLNSVTTEDTATYYCARGADYYGNTYFYFDVWGAGTTVTVSS VL: DIVMSQSPSSLAVSVEEKVNMSCKSSQSLLYSRNQKNYLAWYQQKPGQSPKLLIYWASTRESGVPDRFTGSGAGTDFTLTISSVKAEDLAVYYCQQYYTYPFTFGSGTKLEIK |  |  | binds | binds
